Values quoted from earlier work as cited in paper PMC7321218, “Synthetic (E)-3-Phenyl-5-(phenylamino)-2-styryl-1,3,4-thiadiazol-3-ium Chloride Derivatives as Promising Chemotherapy Agents on Cell Lines Infected with HTLV-1” (Molecules, 2020).

Test system: adult T-cell leukemia/lymphoma (ATLL)
Design: method as in PMID 25733162
Settings: in combination with multi-agent chemotherapy, improved from 33%; cited from earlier work

B1: Mogamulizumab: anti-CCR4 monoclonal antibody (antibody, chains of the INN, looked up, V domains shown)
VH: EVQLVESGGDLVQPGRSLRLSCAASGFIFSNYGMSWVRQAPGKGLEWVATISSASTYSYYPDSVKGRFTISRDNAKNSLYLQMNSLRVEDTALYYCGRHSDGNFAFGYWGQGTLVTVSS
VL: DVLMTQSPLSLPVTPGEPASISCRSSRNIVHINGDTYLEWYLQKPGQSPQLLIYKVSNRFSGVPDRFSGSGSGTDFTLKISRVEAEDVGVYYCFQGSLLPWTFGQGTKVEIK
For B1, which therapy response is on record?
Its therapy response is 52%.
